# Experimental data from article PMC3592470 (Nucleic Acids Research, 2012).
# Substitutions are numbered along the chain they refer to. In names and notes the source's numbering stands.
# T1: BcgI B subunit (UniProt Q07606 1-341)
# T1 sequence (looked up): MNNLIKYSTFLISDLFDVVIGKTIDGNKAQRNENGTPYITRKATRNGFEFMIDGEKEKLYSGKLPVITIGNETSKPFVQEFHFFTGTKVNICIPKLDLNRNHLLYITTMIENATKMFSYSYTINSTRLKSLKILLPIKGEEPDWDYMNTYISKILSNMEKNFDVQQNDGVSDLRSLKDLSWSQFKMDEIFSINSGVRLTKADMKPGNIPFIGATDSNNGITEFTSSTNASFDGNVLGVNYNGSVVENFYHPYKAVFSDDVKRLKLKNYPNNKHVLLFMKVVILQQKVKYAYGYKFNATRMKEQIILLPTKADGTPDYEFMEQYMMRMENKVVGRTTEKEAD
# B1: BcgI A subunit, wild type (as a subunit of WT BcgI) (enzyme, UniProt Q07605 1-637, looked up)
# chain: MVNEKTSTDQLVRRFIEDLGVTYEEQGSSNIQIKQALRSASKSKSQSGVGKPEFIFFSGNHLIIVEDKLAIDKLEYKNNDGIIDTEFPFRRDYAVNGAVHYARHIIEKTNSYKEVIAIGIAGDGLHYQIHPYFVSETELKKLPEMKSLEDISPENIEEFYKVAVLGELPKEERELREVNKIAADMHEDLRNYGQLEGEKKATVVSAILLALEEPTFSLNQLIGSDRVGGTDGEIIFNAVRVYLENAGIVPYAKVGEMLDQFIFIQRDVTLNTVNSNLEMTPLKYFATTLEAEIMDKIKSNTDFDILGNFYGEFVKYGGNDGNPLGIVLTPRHITSLMAELIGINKSDFVLDPACGTGAFLISAMNRMLGQAENDDERRDIKQNRLYGIEIQQKLFTIATTNMILRGDGKSNLIRDNCLTFDNTIMNGYGINKILMNPPYSQAKNDQTQHLSELSFIQQALEMLVVGGKLCAIVPQSTMVGKNRHDKARKKQILKQHTLETVITLNKDTFHGVGVNPCIVIFKAGIKHPENKRVSFVNFEDDGHVVRKHVGLVGDGTEKGKREHLLAVLAGDEDDGTDLIVKTAIKDTDEWLHSFYYFNDGIPSEDDFYKTVANYLTFQFDMTANGKGYLFEGVEENE
# B2: BcgI A subunit, E53A mutant (as a subunit of the BcgI E53A protein) (enzyme, UniProt Q07605 1-637, looked up)
# chain: B1 chain with E53A
# Experiments:
# BcgI B subunit [1] = molecular target: T1, BcgI B subunit; test: AUC
# BcgI B subunit [2] = molecular target: T1, BcgI B subunit; test: native MS
Binder,stoichiometry N (BcgI B subunit [1]) [A per B],stoichiometry N (BcgI B subunit [2]) [A per B]
B1,2,
B2,,2
